Measurements as given in publication PMC2838536 (Human Molecular Genetics, 2010).
Values belong to the binder of their own block, whether it stands above or below them.

How the values were obtained:
[1] = molecular target: T1, his6-tagged full-length Pam18 (S. cerevisiae, UniProt Q07914 1-168); test: pull-down
T1 sequence: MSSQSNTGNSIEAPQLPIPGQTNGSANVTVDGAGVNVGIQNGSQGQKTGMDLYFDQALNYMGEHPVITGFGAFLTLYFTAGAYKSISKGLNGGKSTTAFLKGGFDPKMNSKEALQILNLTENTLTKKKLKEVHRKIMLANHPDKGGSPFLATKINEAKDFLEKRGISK

[2] = molecular target: GST-Magmas_(F92G) (in MagmasJ+T) (human); test: pull-down

binding result [1]: binds
B1: full-length GST-Magmas (natural protein)
chain: MAKYLAQIIVMGVQVVGRAFARALRQEFAASRAAADARGRAGHRSAAASNLSGLSLQEAQQILNVSKLSPEEVQKNYEHLFKVNDKSVGGSFYLQSKVVRAKERLDEELKIQAQEDREKGQMPHT

fold reduction in the binding affinity against wild-type Magmas [2]: 2 fold
B2: his6-tagged Pam18J+T (domain or fragment)
chain: KSISKGLNGGKSTTAFLKGGFDPKMNSKEALQILNLTENTLTKKKLKEVHRKIMLANHPDKGGSPFLATKINEAKDFLEKRGISK
